The RNAGym collection of RNA variant scans (doi:10.1073/pnas.2313332121)

B1: TPR t1 (parent)
chain: GACCAAUCUGCCCUCAGAGCUCGAGAACAUCUUCGGAUGCAGAGGAGGCAGGCUUCGGUGGCGCGAUAGCGCCAACGUCCUCAACCUCCAAUGCAUCCCACCACAUGAUGAUGCCUGAAGAGCCUUGGUUUUUUG

Variants of: B1
Assay: polymerase ribozyme fitness, log enrichment relative to wild type (log ratio); higher = more active; in vitro selection for triplet polymerase activity
Procedure, shortened: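 Mutant libraries were PCR-built and transcribed for each subunit of a heterodimeric triplet polymerase ribozyme and selected for one round in triplicate at −7 °C, frozen, before gel excision of extended constructs and streptavidin-bead capture. Input and output libraries were Illumina-sequenced, keeping genotypes with ≥10 input reads and ≥1 read per output. Fitness is a logarithmic ratio of genotype to wild-type enrichment, in base 2, using inverse-variance-weighted replicate averages.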

Variant	polymerase ribozyme fitness (log ratio)
U92A G128U	-4.84
C94U G113C	-2.26
U96C C102U G113C	-4.89
C88A C104A A121U U130C	0.158
U87A C89G	-2.18
C89A G113C G117A	-5.73
C86A U112C	-0.51
U87C G117A	-1.27
C86G C89G C104U	-0.896
U96A C124U	1.03
U92A C115U	-3.78
U87A C99U G110U	-5.56
U96G G110U	-2.73
C86U A119U	-0.189
C88U G113U	-3.09
C88U G113C	-2.8
C97A C102U	-4.94
U92A G117U	-4.95
A95U U109A U130G	-6.07
U96A A121G	0.527
U96A A121C	1.1
U92A	-2.8
U92G	-2.38
U92C	-0.847

Variant	polymerase ribozyme fitness (log ratio)
C88A U126A	-3.12
A95U U130C	-0.986
C97U U112A	0.716
C94A A95C U131G	-2.37
A95G U125A	-0.382
U96G G120U	-0.269
U96G G120A	-0.241
C97U U112C A121C	1.3
C86U C94A U106G	-3.23
U96G G117A A119G	0.491
U87C C88A U106G	-2.76
U92C C101U C104U	-0.793
C88A A95U C102A G120A	-3.23
C86A G120C	-0.326
A91C C114U	-3.62
G93U C101A G113U G117A	-6.98
C86A G110A C123G	-1.37
C99U A111C	-2.83
C99U A111G	-2.23
U87G G117A	-1.13
A91U C102U	-4.75
C86U G117A	-1.56
A100C G120A	1.47
C97U G127A	-1.48

Variant	polymerase ribozyme fitness (log ratio)
G93C G120A U130C	0.452
U87C A90C C115A	-0.371
C94U C99U U125A	-3.61
C88A G117U	-2.84
A95C C97U C101G	-3.36
C94G U116C A118C	-3.89
C99U G110C	-6.69
C86A A121G	1.66
C89U U133G	-0.403
G93C G113A C124G	-0.942
U96A A119U	-1.13
A100C C102A	-2.98
C88A C123U G127U U131G	-0.279
C98U G117A	-2.99
C89U U92C U112G G127U U130A	-3.09
C89A A90G	-1.53
C88A G120U	-0.146
A90U U106A	-1.76
A90U U106G	-4.63
G93U C102A G120A	-2.52
C97G U112G	-5.5
C86A C124A	1.35
A100C C124A	0.995
C88A A105C	-2.46

Variant	polymerase ribozyme fitness (log ratio)
C94A A105C	-4.8
C94A A105U	-3.27
A90U U106A A111U	-3.8
G93A A95U C102A	-4.21
C94G G110A	-2.23
C86U G110A	-2.37
A100C U112C A118G	0.0171
A90G A95G U133G	-0.0907
C97G C123A	-4.41
C88A G93C	-2.45
C86U C88U	0.0768
G93U U133C	-1.17
C94U A108U C124A	-4.49
A90C G117U	-3.98
A91U G120A	-0.951
C89A A100U C115G	-5.22
C98U A118C	-4.03
C98G C124U	-5.51
A90U G113U	-2.89
C98U C115A	-2
G93U G120C	-0.763
U87A G113C	-2.81
C94U G110A	-1.18
C86U U130C	0.0697

Variant	polymerase ribozyme fitness (log ratio)
G93U C123U	0.528
C88A G107A	-5.92
C94A U112G C124G	0.054
U87A U106A	0.566
U87A C99A C115G G122U C124G	-7.12
G93A C104U	-0.0844
C89U G128C	-3.21
C89G U106A	-2.51
A90C C104U	-0.65
A95C U116G	-2.17
C97U G113C	-2.71
G93A U112A	0.918
C94A U96A	-6.34
A91G C115U	-1.36
U87G C123A	0.557
C88G U96A	-2.61
C88A C94U	-0.581
C88A C94A	-1.66
U87A U130C	-1.39
G93C G122A	-0.79
C88G C97A C104U	-5.23
U96G A108G G117A	-4.91
C88U U112A	0.961
C98U U125A	-1.46

Variant	polymerase ribozyme fitness (log ratio)
C88G C104U C123G	1.53
U96A C123U	-0.01
U96C G110C	-4
C88U G122A	-1.42
C97G A103U	-5.1
U96G C114A	0.0255
C89U G110U A121G	-1.62
C94U U112A C124G	1.39
C88G G117A	-2.35
C97U A121U	1.5
C86A G135U	-1.3
C89A G110A	-3.58
C89A G110U	-3.66
C99U C123A	-3.32
C99U A119G	-1.65
U87C A90G C94U	0.339
G93C U130G	-1.51
U87G U130G	-0.21
C88U U106A C114G	-5.05
C86A G93U C115U	-4.53
C94U U129A	-1.25
C94G G117A	-2.51
C88A C99U G113A C114U	-5.9
C94A G127C	-2.37

Variant	polymerase ribozyme fitness (log ratio)
C94A U109A	-5.96
U96A A111G	-1.84
C88A G110A	-1.49
C97U C104A	-2.32
A91U G127U	-3.19
C88A C102A G107A A111C U116G C123G U125A	-6.39
C89U C97U	-0.579
C89U C97G	-5.4
A90G U92G C123A	-1.06
U92A U129A	-4.29
U92A U129G	-4.28
A90C C114U G128U	-4.34
A95G	0.119
A95C	-0.933
A95U	-0.816
C99U G128A U129A	-5.76
U87A C101U	0.0521
C98U A105G C114G C115A G135U	-7.98
A100C A121G	1.39
G93A U116C	-1.68
C99A G122A	-5.29
U96G G110U G120U U132C	-4.08
U92A U112C A121C	-0.365
